Data reported in patent publication US10752921B2, “Enzymes and methods for styrene synthesis” (Phytogene, Inc., priority 2012, dated 2020).

Key:
styrene production [1] = test: Production of styrene from trans-cinnamic acid in E. coli BL-21 (DE3); assay type: cell-based; conditions: fed 0.1% trans-cinnamic acid, 36 hours, STRATA X column
Protocol: The nucleotides encoding FDC wild type, FDC mutant (K190E), FDC (WT)-PAL fusion protein, and FDC (K190E)-PAL fusion protein were transformed in E. coli BL-21 (DE3). The cells were grown in LB at 30° C. for overnight. The cells were harvested and washed with M9 media. The cells were inoculated to 2.0 ml M9 media with the initial OD600 at 0.3 and were cultured at 30° C. until the OD600 of the culture reached to 0.6 to 0.8. The cells were then induced with 0.2 mM IPTG for 8.0 hours at 30° C. The cells transformed with FDC wild type and FDC (K190E) were fed with 0.1% trans-cinnamic acid. The cells transformed with FDC (WT)-PAL and FDC (K190E)-PAL fusion proteins were fed with either 0.1% trans-cinnamic acid or 0.1% L-phenylalanine. The fed cells were continuously cultured for 36 hours. STRATA X column was used to collect styrene. The product was eluted from the column by butanol and the amount was quantified by HPLC.

styrene production [2] = test: Styrene production by FDC1 mutants from tCA (colorimetric screening, confirmed by HPLC); assay type: cell-based; conditions: E. coli cells, tCA 1 g/L, 30° C. for 4 hours
Protocol: Saturation mutagenesis allows the change of one amino acid to 19 other alternative amino acid residues. […] The codon NNK has 32-fold degeneracy and encodes all 20 amino acids without rare codons. The QuikChange PCR products were examined by agarose gel electrophoresis and then 15 μl of PCR products were digested with 1 μl Dpnl (New England Biolabs) at 37° C. for 4 hours to remove the template plasmid. Aliquots of (2 μl) digestive products were transformed into BL21-Gold (DE3) competent cells (STRATAgene, CA) and inoculated on Luria-Bertani (LB) agar plates containing kanamycin. The quality of the library by DNA sequencing was confirmed. The library covers 90% of mutagenesis (17 mutants out of 19). To cover 100% (19 out of 19 mutant), we screened 150 mutants for each site.
The transformants (Example II.2) were inoculated in 96-well plates (NUNC, Roskilde, Denmark) containing 100 μl LB broth per well and incubated at 37° C., overnight. The cultures were then mixed with equal amount of 50% glycerol and stored at −80° C. as the master plate. An aliquot of 10 μl culture was inoculated in 2 ml deep-well plates (USA scientific) with 1 ml TB broth per well and incubated at 37° C. until the OD600 reached 1.0. The cultures were then induced by 0.2 mM IPTG and incubated at 18° C. for 20 hours with shaking at 250 rpm.
Cells were harvested and suspended with 0.25 ml PBS buffer at pH 7.0 and the substrate (tCA) was added at a final concentration of 1 g/L. The culture was incubated at 30° C. for 4 hours and the volatile product styrene was collected by using 96 well STRATA-X® reversed phase plate containing 10 mg polymer based resin (Phenomenex) on top of the culture plate (FIG. 19). To avoid styrene vapor diffusion, 96-square well silicone sealing mats with pre-slit were used between 96-well culture plate and 96 well STRATA-X® reversed phase plate. The product was collected by 200 μl propanol for each well and the amount of product was measured by colorimetric method.
Various chemicals were tested as an indicator for styrene detection, including NBP (4-nitrobenzyl-pyridine) as a preferred indicator. Styrene was mixed with cytochrome P450 BM-3 in 50 mM phosphate buffer pH 8.0. The styrene oxidation reaction was started by adding 0.2 mM NADPH, and the reaction mixture was incubated at room temperature for 5 minutes with shaking. The NBP solution was added to the mixture and incubated at room temperature for further 5 minutes with shaking which gives white precipitate. The tube or plate containing reaction mixtures were heated at 70° C. for 30 minutes and chilled on ice for 5 minutes. After adding Dimethylformamide (150 μl) and 25 μl of 1M K2CO3, the reaction mixture gave blue color that can be measured spectrophotometrically at 600 nm immediately. The […] of NBP reacts with the oxirane ring of styrene oxide to yield a blue chromophore a blue color that can be monitored spectrophotometrically at 600 nm.
The mutants showing higher activity were confirmed by HPLC using an ACQUITY UPLC BEH C18 column (1.7-μm, 2.1×50-mm, Waters, USA). The samples were resolved in 30% acetonitrile (A) with an increasing concentration gradient of acetonitrile (B) for 1 min, 95%; then to 1 min, 30%; at a flow rate of 1 ml/min. UV absorption was monitored at 254-, 280-, and 310-nm. The changed amino acid residues in the mutants showing the higher activity were confirmed by DNA sequence.

B1: K190E (protein)
chain: MRKLNPALEFRDFIQVLKDEDDLIEITEEIDPNLEVGAIMRKAYESHLPAPLFKNLKGASKDLFSILGCPAGLRSKEKGDHGRIAHHLGLDPKTTIKEIIDYLLECKEKEPLPPITVPVSSAPCKTHILSEEKIHLQSLPTPYLHVSDGGKYLQTYGMWILQTPDKKWTNWSIARGMVVDDKHITGLVIEPQHIRQIADSWAAIGKANEIPFALCFGVPPAAILVSSMPIPEGVSESDYVGAILGESVPVVKCETNDLMVPATSEMVFEGTLSLTDTHLEGPFGEMHGYVFKSQGHPCPLYTVKAMSYRDNAILPVSNPGLCTDETHTLIGSLVATEAKELAIESGLPILDAFMPYEAQALWLILKVDLKGLQALKTTPEEFCKKVGDIYFRTKVGFIVHEIILVADDIDIFNFKEVIWAYVTRHTPVADQMAFDDVTSFPLAPFVSQSSRSKTMKGGKCVTNCIFRQQYERSFDYITCNFEKGYPKGLVDKVNENWKRYGYK
Styrene production [1]
  styrene produced: 758 mg/L
Styrene production [2]
  amount of styrene compared to that of wild type (in words): significantly higher amount of styrene
  styrene produced compared to wild type: 3 times
